From FireProtDB (doi:10.1021/bi0362267)

Conditions: Bacillus amyloliquefaciens, pH 6.3, Thermal, CD, Mes 50 mM, whole UniProt chain shown

B1: Ribonuclease wild type, P00648 (protein)
chain: MMKMEGIALKKRLSWISVCLLVLVSAAGMLFSTAAKTETSSHKAHTEAQVINTFDGVADYLQTYHKLPDNYITKSEAQALGWVASKGNLADVAPGKSIGGDIFSNREGKLPGKSGRTWREADINYTSGFRNSDRILYSSDWLIYKTTDHYQTFTKIR
- unfolding free energy (25 °C): 9.5 kcal/mol
- Tm: 52.2 °C
- unfolding enthalpy (van 't Hoff): 137 kcal/mol
